Measurements as given in publication PMC7733473, “Aberrant interaction of FUS with the U1 snRNA provides a molecular mechanism of FUS induced amyotrophic lateral sclerosis”.

Key:
FUS-RRM (RRM-RGG2) [1] = target: FUS-RRM (RRM-RGG2) (UniProt P35637); experiment: ITC; details: n = 0.85; K = (1.25 ± 0.08)e5; 13C/15N in RNA-observed NMR; ITC: 10 mM Na phosphate pH 6.8, 50 mM NaCl, 1 mM β-mercaptoethanol, 25 °C; NMR 313 K; SEC: 10 mM Na phosphate pH 6.8, 100 mM NaCl, 2 mM DTT; EMSA: 10 mM HEPES …
FUS-RBD (RRM-RGG2-ZnF) [2] = experiment: competition; details: equimolar Sm proteins and U1-70K (1-216) present; ITC: 10 mM Na phosphate pH 6.8, 50 mM NaCl, 1 mM β-mercaptoethanol, 25 °C; NMR 313 K; SEC: 10 mM Na phosphate pH 6.8, 100 mM NaCl, 2 mM DTT; EMSA: 10 mM HEPES …; scale: % reduction of FUS capacity to impair core snRNP assembly
[3] = test system: FUS-RBD WT, EMSA construct; experiment: EMSA; details: 5 mM Mg2+, yeast tRNA and salmon sperm DNA; value given jointly with ITC; ITC: 10 mM Na phosphate pH 6.8, 50 mM NaCl, 1 mM β-mercaptoethanol, 25 °C; NMR 313 K; SEC: 10 mM Na phosphate pH 6.8, 100 mM NaCl, 2 mM DTT; EMSA: 10 mM HEPES …
FUS-RBD (RRM-RGG2-ZnF) [4] = experiment: ITC; details: n = 0.92; K = (1.37 ± 0.23)e7; ITC: 10 mM Na phosphate pH 6.8, 50 mM NaCl, 1 mM β-mercaptoethanol, 25 °C; NMR 313 K; SEC: 10 mM Na phosphate pH 6.8, 100 mM NaCl, 2 mM DTT; EMSA: 10 mM HEPES …
FUS-RRM (RRM-RGG2) [5] = target: FUS-RRM (RRM-RGG2) (UniProt P35637 260-390); experiment: NMR titration; ITC: 10 mM Na phosphate pH 6.8, 50 mM NaCl, 1 mM β-mercaptoethanol, 25 °C; NMR 313 K; SEC: 10 mM Na phosphate pH 6.8, 100 mM NaCl, 2 mM DTT; EMSA: 10 mM HEPES pH 7.3, 100 mM KCl, 5 mM MgCl2, tRNA and ssDNA 10 µg/ml each, room temperature; details: protein: recombinant
Chain of FUS-RRM (RRM-RGG2) (UniProt P35637 260-390) (P35637 260-390): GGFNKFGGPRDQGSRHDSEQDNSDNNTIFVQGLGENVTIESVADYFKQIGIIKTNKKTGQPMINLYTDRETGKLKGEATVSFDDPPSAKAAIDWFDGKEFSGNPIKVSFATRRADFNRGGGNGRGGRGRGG

Chain of FUS-RRM (RRM-RGG2) (UniProt P35637) (P35637 260-390): as above

Question: Which Kd (FUS-RRM (RRM-RGG2) [1]) does the source give for U1 SL3 here?
Answer: 8000 nM

Question: U1 SL34 was tested. Which binding signal (FUS-RBD (RRM-RGG2-ZnF) [2]) did it give?
Answer: 75

Question: And the Kd [3]?
Answer: 70 nM

Question: What about the Kd (FUS-RBD (RRM-RGG2-ZnF) [4]) of the same molecule?
Answer: 70 nM

B1: U4 3'-ISL fragment (structured_RNA)
RNA: GGACUUGAAAUAUAGUCC
Question: Does B1 bind (FUS-RRM (RRM-RGG2) [5]; hairpin)?
Answer: binds

B2: U5 IL-1 fragment (structured_RNA)
RNA: GGCUCUGGUUUCUUCGGGAACAACUCUGAGCC
Question: Does B2 bind (FUS-RRM (RRM-RGG2) [5]; hairpin with internal bulge, UUCG loop)?
Answer: binds

B3: U6 21-28 (ssRNA)
RNA: UAUACUAA
Question: Does B3 bind (FUS-RRM (RRM-RGG2) [5]; single strand)?
Answer: binds
